From patent US20100009868, “Self-Assembled Combinatorial Encoding Nanoarrays for Multiplexed Biosensing” (The Arizona Board of Regents a body corporate acti ng for …, published 2010)
Read-outs that look alike come from different tables or passages of the source.

What was measured:
[1] = biological target: T1, BSA (bovine serum albumin) (UniProt P02769 P02769:25-607); experiment: no significant 3MI fluorescence change on array; settings: label: 3MI at position 7
[2] = biological target: T1, BSA (bovine serum albumin); experiment: 6 uM BSA, no color change of array; settings: label: Alexa Fluor 488
Description: (§1) Desired amount of detection targets were added into 10 μl multiplexed detection solution. Unless elsewhere mentioned, final concentration of detection targets was 0.5 μM for DNA targets, 6 μM for thrombin and 3 mM for ATP. The mixture was thoroughly mixed by vortexing and then incubated at room temperature for 30 min before imaging.
(§2) Two different aptamer binding targets were used: human α-thrombin and ATP (See Table 1). The DNA sequences of probe 3 and 4 are, in fact, the aptamer sequences for these two targets.

alpha-thrombin [3] = biological target: alpha-thrombin (Homo sapiens, UniProt P00734;P00734 P00734:328-363,P00734:364-622); experiment: possibly CITED (ref 13); apparent Kd for strand-displacement probe; Table 1 labels of probes 3 and 4 appear swapped, Table 2 and sequence assign probe 3 to thro
alpha-thrombin [4] = biological target: T2, alpha-thrombin (Homo sapiens, UniProt P00734;P00734 P00734:328-363,P00734:364-622); experiment: no color change of array; 6 uM thrombin, 1xTAE-Mg, RT; settings: label: Alexa Fluor 488; partially hybridised to anchor strand on DNA B tile
Description: as §1, §2

alpha-thrombin [5] = biological target: T2, alpha-thrombin
[6] = partially hybridised to anchor strand on DNA B tile

T1 sequence (P02769 25-607, one chain of several): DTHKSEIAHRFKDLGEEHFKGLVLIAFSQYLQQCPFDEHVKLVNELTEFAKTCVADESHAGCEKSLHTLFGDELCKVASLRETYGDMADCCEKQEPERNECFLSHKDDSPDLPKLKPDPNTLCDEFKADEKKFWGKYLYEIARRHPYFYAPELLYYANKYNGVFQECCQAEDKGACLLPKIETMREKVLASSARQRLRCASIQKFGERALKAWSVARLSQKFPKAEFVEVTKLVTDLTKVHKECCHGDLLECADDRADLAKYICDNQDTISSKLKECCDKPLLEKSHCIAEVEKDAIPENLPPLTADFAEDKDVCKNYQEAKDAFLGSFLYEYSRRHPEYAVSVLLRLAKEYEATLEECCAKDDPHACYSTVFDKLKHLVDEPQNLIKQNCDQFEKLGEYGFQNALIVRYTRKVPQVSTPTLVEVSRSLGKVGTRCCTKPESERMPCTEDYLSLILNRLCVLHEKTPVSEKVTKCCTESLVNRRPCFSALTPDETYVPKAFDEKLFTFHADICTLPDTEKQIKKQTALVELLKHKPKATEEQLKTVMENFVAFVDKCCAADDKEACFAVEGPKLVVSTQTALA

GGTTGGTGTGGTTGG (structured_DNA, dT7 replaced by 3-methylisoxanthopterin (3MI)) [3MI-TBA signaling aptamer on DNA tile array]: no binding [1].

In the case of CACTGTGGTTGGTGTGGTTGG (ssDNA) [Probe 3 (thrombin aptamer containing)], the binding result ([2]; partially hybridised to anchor strand on DNA B tile (8-12 bp)) is reported as “no binding” and the Kd (alpha-thrombin [3]) is reported as ~400 nM.

CACTGACCTGGGGGAGTATTGCGGAGGAAGGT (ssDNA) [Probe 4 (ATP aptamer containing)]: no binding [2, 6].

TTTAACAGCAGTTGAGTTGATACTACTGGCCTAATTCCA (ssDNA) [Probe 2 (HIV probe)]: no binding (alpha-thrombin [4]); no binding [2, 6].

CGTCTCTACCTGATTACTATTGCATCT (ssDNA) [Probe 1 (SARS probe)]: no binding (alpha-thrombin [5]); no binding [2, 6].
